Laboratory results from publication PMC11915506.
Read-outs that look alike come from different tables or passages of the source.

Legend:
[1] = target: Peltigera membranacea cyanobiont 210A (Pmc) TnsC (Peltigera membranacea cyanobiont 210A); test: cryo-EM structure
[2] = target: Peltigera membranacea cyanobiont 210A (Pmc) TnsC (Peltigera membranacea cyanobiont 210A); test: cryo-EM structure; remark: listed apart in the source

stoichiometry N [1]: 7 | stoichiometry N [2]: 7
Substance: Peltigera membranacea cyanobiont 210A (Pmc) TnsC (natural protein)
